# Laboratory results taken from paper PMC3614025.
# Several values for one entry are separate records, joined by “and”; a condition that tells them apart may be missing. Equal entries are not always repeated.
# Target: Chikungunya virus nuclear capsid protein (Chikungunya virus)
# Test: cryo-EM structure
substance,measurement,value
Chikungunya virus nuclear capsid protein (natural protein),stoichiometry N,5 and 6
